The record followed here is patent US6114143, “Anti-HIV monoclonal antibody” (Juridical Foundation The Chemo-Sero-Therapeutic Research …, dated 2000).

Experiment [1] deals with gp120 of HIV-MN strain (HIV strain MN, UniProt P05877). The experiment can be described thus: cell-based or functional assay.
Experiment [2] addresses decapeptide […] derived from NI53 (HIV strain NI53). The experiment can be described thus: EIA, peptide synthesized on a polyethylene rod (FIG. 6).
In experiment [3] the target is T1, decapeptide IHIGPGRAFY derived from HIV-MN (HIV strain MN).
T1 peptide: IHIGPGRAFY
Described as above.

In experiment [4] the target is synthetic peptide SP-30 (5 repeats of GPGR). The experiment is described as follows: EIA, peptide immobilized on plate (FIG. 4).
The target of experiment [5] is synthetic PND peptide SP-6 (HIV strain NI16-1) (HIV strain NI16-1). The experiment is described as follows: EIA, peptide immobilized on plate (FIG. 4).
In experiment [6] the target is synthetic PND peptide SP-12 (HIV strain NI53) (HIV strain NI53). The experiment can be described thus: EIA, peptide immobilized on plate (FIG. 4).
In experiment [7] the target is synthetic PND peptide SP-11 (HIV strain NI54-2) (HIV strain NI54-2). The experiment is described as follows: EIA, peptide immobilized on plate (FIG. 4).
Experiment [8] concerns the target synthetic PND peptide SP-9 (HIV strain NI23) (HIV strain NI23). The experiment is described as follows: EIA, peptide immobilized on plate (FIG. 4).
For experiment [9], the target named is synthetic PND peptide SP-20 (HIV strain NI63-2) (HIV strain NI63-2). The experiment is described as follows: EIA, peptide immobilized on plate (FIG. 4).
Experiment [10] has as its target T2, synthetic PND peptide SP-1 (HIV strain MN) (HIV strain MN).
T2 peptide: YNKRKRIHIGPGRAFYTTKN
The experiment is described as follows: EIA, peptide immobilized on plate (FIG. 4).

Experiment [11] addresses T3, hexapeptide Gly-Pro-Gly-Arg-Ala-Phe (HIV strain MN).
T3 peptide: GPGRAF
The experiment is described as follows: EIA with overlapped peptides on a solid phase (FIG. 7).

The target of experiment [12] is T4, hexapeptide Ile-Gly-Pro-Gly-Arg-Ala (HIV strain MN).
T4 peptide: IGPGRA
The description is as above.

B1: monoclonal antibody C25 (antibody, V domains shown)
VH: QVQLQQSGAELVRPGTSVKMFCKAAGYTFTNSWIGWFRQRPGHGLEWIGDIYPGGGYTNYNEIFKGKATLTADTSSSTAYMQLSSLTSEDSAIYYCSRGIPGYAMDYWGQGTSVTVSS
VL: DIVMTQSPSSLTVTAGEKVTMSCKSSQSLLNSGDQKNYLTWYQQKPGQPPKLLIYWASTGESGVPDRFTGSGSETDFTLTISSVQAEDLAVYYCQNDYSYPWTFGGGTKLEIK
On to B1, for which the “minimum effective concentration inhibiting viral infection by 100%” value in experiment [1] came to 1 µg/mL. In addition, the binding result in experiment [2], in [3], in [4], in experiment [5], in experiment [6] and in [7] was “binds” in each case. Besides, the binding result in experiment [8], in experiment [9], in [10], in [11] and in experiment [12] was “binds” each time.

B2: chimeric C25 antibody (CC25) (antibody, V domains shown)
VH: B1 VH
VL: B1 VL
In the case of B2, the “minimum effective concentration inhibiting viral infection by 100%” value in experiment [1] came to 1 µg/mL.

B3: humanized C25 antibody (RC25) (antibody, V domains shown)
VH: QVQLVQSGAEVKKPGASVKVSCKASGYTFTNSWIGWFRQAPGQGLEWIGDIYPGGGYTNYNEIFKGKATMTADTSTNTAYMELSSLRSEDTAVYYCSRGIPGYAMDYWGQGTLVTVSS
VL: DIQMTQSPSSLSASVGDRVTMSCKSSQSLLNSGDQKNYLTWYQQKPGKAPKLLIYWASTGESGVPSRFSGSGSGTDFTFTISSLQPEDIATYYCQNDYSYPWTFGQGTKVEIK
On to B3, for which, in [1], the “minimum effective concentration inhibiting viral infection by 100%” value is 1 µg/mL.
